{"source": "patent US11434299", "about": "(TENEOBIO, dated 2022)", "binders": {"B1": {"name": "SEQ ID NO 53 (antibody, V domains shown)", "VH": "EVQLLESGGGLVQPGGSLRLSCAASGFTFSNYAMNWVRQAPGKGLEWVSGIIGSGGSTYYADSVKGRFTISRDNSKNTLYLQMNSLRVEDTAVYYCVKDWNTTMITERGQGTLVTVSS", "notes": "UniAb: CH1 deleted, no light chain; HEK supernatant"}}, "biological_target": "T1, human BCMA (B-Cell Maturation Antigen) on NCI-H929 cells (human, UniProt Q02223 1-184)", "T1 construct": "whole, on cells; Endogenous BCMA on NCI-H929 myeloma cells; also called TNFRSF17; H929 cells (BCMA+, lambda-)", "T1 sequence (looked up)": "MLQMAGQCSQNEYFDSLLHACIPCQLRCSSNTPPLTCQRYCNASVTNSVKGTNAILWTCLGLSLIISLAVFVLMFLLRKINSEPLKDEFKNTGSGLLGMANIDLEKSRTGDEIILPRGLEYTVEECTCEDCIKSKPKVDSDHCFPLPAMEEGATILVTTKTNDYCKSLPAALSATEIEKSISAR", "assay": "flow cytometry, HEK supernatants on NCI-H929 cells (BCMA+)", "method": "Supernatants of all antibodies were also tested by flow cytometry for binding to RPMI-8226 cells (BCMA+, lambda+) and H929 cells (BCMA+, lambda−). The samples were measured by flow cytometry using a Guava easyCyte 8HT instrument from EMD Millipore and analyzed using guavaSoft. Bound antibodies were detected with goat anti-human IgG F(ab')_2 conjugated to PE (Southern Biotech 2042-09). All antibodies were diluted in PBS with 1% BSA. Positive staining was determined by comparison to staining with a human IgG1 isotype control. The NCI-H929 and RPMI-8226 cell lines are human multiple myeloma lines expressing human BCMA, which were obtained from the American Type Culture Collection (ATCC) and cultured according to ATCC recommendations.", "data": [{"binder": "B1", "values": [{"measurement": "binding result", "value": "binds"}]}]}
